Data published in US20210246166A1 (Bayer, published 2021).
Numbered stars: 1 amine (or outer) side, 2 acyl side, 3 side chain; on linkers, the order of the positions; unused ones are H or OH. Bridge positions count the residues as written; N and C are the ends. Square brackets hold non-standard residues; d marks the D form. Ends that are not written are not given here. * marks the point of attachment. (Me)R = N(5)-methyl-L-arginine, CN(CCC[C@H](N[*:1])C(=O)[*:2])C(=N)N; Pro(trans-4-F) = O=C(O)[C@@H]1C[C@@H](F)CN1; Oic = O=C(O)[C@@H]1C[C@@H]2CCCC[C@@H]2N1; Cyclopentanecarbonyl = O=C(C1CCCC1)*; Butanoyl(3,3-Me2) = CC(C)(C)CC(=O)*; tBuAla = CC(C)(C)C[C@H](N)C(=O)O; Gly(cBu) = N[C@H](C(=O)O)C1CCC1; Pen = CC(C)(S)[C@H](N)C(=O)O; NMeC = CN[C@@H](CS)C(=O)O; Orn = NCCC[C@H](N)C(=O)O; Sar = CNCC(=O)O

B1: Example 405: ((N-Me)G)-(Orn)-(Orn)-(Orn)-IC+SRSLP-(Oic)-I-(Pen)+IP-NH2 (peptide)
peptide: [Sar][Orn][Orn][Orn]ICSRSLP[Oic]I[Pen]IP-NH2
modifications: disulfide 6-14; N-terminus assumed
SMILES: CC[C@H](C)[C@H](NC(=O)[C@H](CCCN)NC(=O)[C@H](CCCN)NC(=O)[C@H](CCCN)NC(=O)CNC)C(=O)N[C@H]1CSSC(C)(C)[C@@H](C(=O)N[C@H](C(=O)N2CCC[C@H]2C(N)=O)[C@@H](C)CC)NC(=O)[C@H]([C@@H](C)CC)NC(=O)[C@@H]2C[C@@H]3CCCC[C@@H]3N2C(=O)[C@@H]2CCCN2C(=O)[C@H](CC(C)C)NC(=O)[C@H](CO)NC(=O)[C@H](CCCNC(=N)N)NC(=O)[C@H](CO)NC1=O
B2: Example 397: ((2S,3S)-2-[2-Oxopiperazin-1-yl]-3-methylpentanoic acid)-C+SRSLPPIC+IPD-OH (peptide)
peptide: {(2S,3S)‑2‑(2-Oxopiperazin-1-yl)‑3‑methylpentanoic acid}-CSRSLPPICIPD-OH
modifications: disulfide 1-9
B3: Example 393: ((2S,3S)-2-[(3S)-2-oxopiperazin-1-yl]-3-methylpentanoic acid)-C+SRSLPPIC+IAD-OH (peptide)
peptide: {(2S,3S)‑2‑((3S)-2-oxopiperazin-1-yl)‑3‑methylpentanoic acid}-CSRSLPPICIAD-OH
modifications: disulfide 1-9
B4: Example 408: (Cyclopentanecarboxylic acid)-IC+SRS-((tBu)A)-PPI-((N-Me)C)+I-NH2 (peptide)
peptide: Cyclopentanecarbonyl-ICSRS[tBuAla]PPI[NMeC]I-NH2
modifications: disulfide 2-10
SMILES: CC[C@H](C)[C@H](NC(=O)[C@@H]1CSSC[C@H](NC(=O)[C@@H](NC(=O)C2CCCC2)[C@@H](C)CC)C(=O)N[C@@H](CO)C(=O)N[C@@H](CCCNC(=N)N)C(=O)N[C@@H](CO)C(=O)N[C@@H](CC(C)(C)C)C(=O)N2CCC[C@H]2C(=O)N2CCC[C@H]2C(=O)N[C@@H]([C@@H](C)CC)C(=O)N1C)C(N)=O
B5: Example 403: AIC+S-((Me)R)-S-((tBu)A)-PPI-(Pen)+IPD-NH2 (peptide)
peptide: AICS[(Me)R]S[tBuAla]PPI[Pen]IPD-NH2
modifications: disulfide 3-11; N-terminus assumed
SMILES: CC[C@H](C)[C@H](NC(=O)[C@H](C)N)C(=O)N[C@H]1CSSC(C)(C)[C@@H](C(=O)N[C@H](C(=O)N2CCC[C@H]2C(=O)N[C@@H](CC(=O)O)C(N)=O)[C@@H](C)CC)NC(=O)[C@H]([C@@H](C)CC)NC(=O)[C@@H]2CCCN2C(=O)[C@@H]2CCCN2C(=O)[C@H](CC(C)(C)C)NC(=O)[C@H](CO)NC(=O)[C@H](CCCN(C)C(=N)N)NC(=O)[C@H](CO)NC1=O
B6: Example 396: (tert-Butylacetic acid)-IC+SRS-((tBu)A)-PPI-(Pen)+I-NH2 (peptide)
peptide: {Butanoyl(3,3-Me2)}-ICSRS[tBuAla]PPI[Pen]I-NH2
modifications: disulfide 2-10
SMILES: CC[C@H](C)[C@H](NC(=O)[C@H]1NC(=O)[C@H]([C@@H](C)CC)NC(=O)[C@@H]2CCCN2C(=O)[C@@H]2CCCN2C(=O)[C@H](CC(C)(C)C)NC(=O)[C@H](CO)NC(=O)[C@H](CCCNC(=N)N)NC(=O)[C@H](CO)NC(=O)[C@@H](NC(=O)[C@@H](NC(=O)CC(C)(C)C)[C@@H](C)CC)CSSC1(C)C)C(N)=O
B7: Example 398: (Pivalic)-IC+SRS-((tBu)A)-PPI-((N-Me)C)+I-NH2 (peptide)
peptide: Pivalic-ICSRS[tBuAla]PPI[NMeC]I-NH2
modifications: disulfide 2-10
B8: Example 392: (2-Hydroxyisobutyric)-IC+SRS-((tBu)A)-PPIC+IPD-NH2 (peptide)
peptide: {2‑Hydroxyisobutyric}-ICSRS[tBuAla]PPICIPD-NH2
modifications: disulfide 2-10
B9: Example 389: AIC+SRSLPP-(Cyclobutylglycine)-C+IPD-NH2 (peptide)
peptide: AICSRSLPP[Gly(cBu)]CIPD-NH2
modifications: disulfide 3-11; N-terminus assumed
SMILES: CC[C@H](C)[C@H](NC(=O)[C@H](C)N)C(=O)N[C@H]1CSSC[C@@H](C(=O)N[C@H](C(=O)N2CCC[C@H]2C(=O)N[C@@H](CC(=O)O)C(N)=O)[C@@H](C)CC)NC(=O)[C@H](C2CCC2)NC(=O)[C@@H]2CCCN2C(=O)[C@@H]2CCCN2C(=O)[C@H](CC(C)C)NC(=O)[C@H](CO)NC(=O)[C@H](CCCNC(=N)N)NC(=O)[C@H](CO)NC1=O
B10: Example 402: ((N-Me)G)-I-(Pen)+SRSLPPIC+IPD-OH (peptide)
peptide: [Sar]I[Pen]SRSLPPICIPD-OH
modifications: disulfide 3-11; N-terminus assumed
SMILES: CC[C@H](C)[C@H](NC(=O)CNC)C(=O)N[C@@H]1C(=O)N[C@@H](CO)C(=O)N[C@@H](CCCNC(=N)N)C(=O)N[C@@H](CO)C(=O)N[C@@H](CC(C)C)C(=O)N2CCC[C@H]2C(=O)N2CCC[C@H]2C(=O)N[C@@H]([C@@H](C)CC)C(=O)N[C@H](C(=O)N[C@H](C(=O)N2CCC[C@H]2C(=O)N[C@@H](CC(=O)O)C(=O)O)[C@@H](C)CC)CSSC1(C)C
B11: Example 388: IC+SRSLP-(Oic)-I-(Pen)+IPQ-OH (peptide)
peptide: ICSRSLP[Oic]I[Pen]IPQ-OH
modifications: disulfide 2-10; N-terminus assumed
SMILES: CC[C@H](C)[C@H](N)C(=O)N[C@H]1CSSC(C)(C)[C@@H](C(=O)N[C@H](C(=O)N2CCC[C@H]2C(=O)N[C@@H](CCC(N)=O)C(=O)O)[C@@H](C)CC)NC(=O)[C@H]([C@@H](C)CC)NC(=O)[C@@H]2C[C@@H]3CCCC[C@@H]3N2C(=O)[C@@H]2CCCN2C(=O)[C@H](CC(C)C)NC(=O)[C@H](CO)NC(=O)[C@H](CCCNC(=N)N)NC(=O)[C@H](CO)NC1=O
B12: Example 399: (Orn)-AIC+SRS-((tBu)A)-PPI-((N-Me)C)+IPD-NH2 (peptide)
peptide: [Orn]AICSRS[tBuAla]PPI[NMeC]IPD-NH2
modifications: disulfide 4-12; N-terminus assumed
SMILES: CC[C@H](C)[C@H](NC(=O)[C@H](C)NC(=O)[C@@H](N)CCCN)C(=O)N[C@H]1CSSC[C@@H](C(=O)N[C@H](C(=O)N2CCC[C@H]2C(=O)N[C@@H](CC(=O)O)C(N)=O)[C@@H](C)CC)N(C)C(=O)[C@H]([C@@H](C)CC)NC(=O)[C@@H]2CCCN2C(=O)[C@@H]2CCCN2C(=O)[C@H](CC(C)(C)C)NC(=O)[C@H](CO)NC(=O)[C@H](CCCNC(=N)N)NC(=O)[C@H](CO)NC1=O
B13: Example 390: ((N-Me)G)-IC+SRSLP-((trans-4-Fluoro)P)-IC+IPD-OH (peptide)
peptide: [Sar]ICSRSLP[Pro(trans-4-F)]ICIPD-OH
modifications: disulfide 3-11; N-terminus assumed
SMILES: CC[C@H](C)[C@H](NC(=O)CNC)C(=O)N[C@H]1CSSC[C@@H](C(=O)N[C@H](C(=O)N2CCC[C@H]2C(=O)N[C@@H](CC(=O)O)C(=O)O)[C@@H](C)CC)NC(=O)[C@H]([C@@H](C)CC)NC(=O)[C@@H]2C[C@@H](F)CN2C(=O)[C@@H]2CCCN2C(=O)[C@H](CC(C)C)NC(=O)[C@H](CO)NC(=O)[C@H](CCCNC(=N)N)NC(=O)[C@H](CO)NC1=O

The binders below were run against recombinant human MASP2 active protease (amino acids 297-686, C-terminal His Tag) (human, UniProt O00187 297-686) (assay: cell-based or functional assay).
Chain of recombinant human MASP2 active protease (amino acids 297-686, C-terminal His Tag) (O00187 other isoform, or with tags, fused parts or gaps limits assumed): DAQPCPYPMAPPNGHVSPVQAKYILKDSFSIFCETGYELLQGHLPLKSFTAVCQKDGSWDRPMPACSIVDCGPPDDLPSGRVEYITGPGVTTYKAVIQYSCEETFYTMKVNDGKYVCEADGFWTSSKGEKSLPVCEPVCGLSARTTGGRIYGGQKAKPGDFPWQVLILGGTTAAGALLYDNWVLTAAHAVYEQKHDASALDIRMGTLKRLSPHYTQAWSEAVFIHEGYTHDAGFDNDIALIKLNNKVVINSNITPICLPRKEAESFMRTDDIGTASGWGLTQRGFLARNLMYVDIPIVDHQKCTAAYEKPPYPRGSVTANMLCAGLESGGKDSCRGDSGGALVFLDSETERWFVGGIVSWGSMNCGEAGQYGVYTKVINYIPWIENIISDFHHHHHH

B1 was tested. Which “human MASP2 IC50” value did it give?
The value was 980 nM.

For B2, which “human MASP2 IC50” value is on record?
Its value is 3800 nM.

How did the “human MASP2 IC50” value turn out when B3 was run?
The value was 3800 nM.

For B4, which “human MASP2 IC50” value is on record?
The value was 32 nM.

Which “human MASP2 IC50” value does the source give for B5 here?
The value was 740 nM.

Which “human MASP2 IC50” value does the source give for B6 here?
Its value is 28 nM.

B7 was tested. Which “human MASP2 IC50” value did it give?
Its value is 22 nM.

For B8, which “human MASP2 IC50” value is on record?
Its value is 80 nM.

With B9 as the binder, how does the “human MASP2 IC50” value read?
Its value is 330 nM.

Which “human MASP2 IC50” value does the source give for B10 here?
The value was 2100 nM.

Which “human MASP2 IC50” value does the source give for B11 here?
The value was 750 nM.

With B12 as the binder, how does the “human MASP2 IC50” value read?
Its value is 520 nM.

For B13, which “human MASP2 IC50” value is on record?
Its value is 1300 nM.

The binders below were run against T1, recombinant human MASP1 active protease (amino acids 297-699, C-terminal His Tag) (human, UniProt P48740 297-699) (assay: cell-based or functional assay).
T1 sequence: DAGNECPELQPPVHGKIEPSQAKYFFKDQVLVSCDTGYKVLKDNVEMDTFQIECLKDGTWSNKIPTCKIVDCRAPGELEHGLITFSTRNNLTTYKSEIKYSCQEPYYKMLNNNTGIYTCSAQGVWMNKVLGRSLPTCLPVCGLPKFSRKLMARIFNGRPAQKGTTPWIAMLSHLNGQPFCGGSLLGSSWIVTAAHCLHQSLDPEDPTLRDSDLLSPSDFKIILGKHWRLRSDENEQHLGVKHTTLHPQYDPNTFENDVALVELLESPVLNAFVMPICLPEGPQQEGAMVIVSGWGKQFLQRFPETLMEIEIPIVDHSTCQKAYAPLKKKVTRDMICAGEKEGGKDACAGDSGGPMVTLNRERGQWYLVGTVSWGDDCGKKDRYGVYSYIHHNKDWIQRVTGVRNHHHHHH

For B1, which “human MASP1 IC50” value is on record?
The value was 63 nM.

How did the “human MASP1 IC50” value turn out when B2 was run?
Its value is 54 nM.

B3 was tested. Which “human MASP1 IC50” value did it give?
Its value is 49 nM.

How did the “human MASP1 IC50” value turn out when B4 was run?
The value was 69 nM.

Which “human MASP1 IC50” value does the source give for B5 here?
The value was 59 nM.

Which “human MASP1 IC50” value does the source give for B6 here?
The value was 53 nM.

B7 was tested. Which “human MASP1 IC50” value did it give?
The value was 54 nM.

Which “human MASP1 IC50” value does the source give for B8 here?
Its value is 47 nM.

For B9, which “human MASP1 IC50” value is on record?
The value was 46 nM.

How did the “human MASP1 IC50” value turn out when B10 was run?
The value was 58 nM.

B11 was tested. Which “human MASP1 IC50” value did it give?
Its value is 45 nM.

Which “human MASP1 IC50” value does the source give for B12 here?
The value was 55 nM.

Which “human MASP1 IC50” value does the source give for B13 here?
The value was 47 nM.
